From paper PMC12637224, “The nonconserved integrin cytoplasmic region determines integrin subtype–specific characteristics by modulating talin1 binding kinetics” (The Journal of Biological Chemistry, 2025)

Columns and labels:
[1] = biological target: T1, HaloTag-fused talin1 (HT-talin1), endogenous knock-in in mouse primary T cells (mouse (endogenous knock-in in mouse T …, UniProt P26039 1-2541, HaloTag labelled with HT SaraFluor 650T Ligand)); assay: naive T cells, on MAdCAM1
[2] = biological target: T1, HaloTag-fused talin1 (HT-talin1), …; assay: activated T cells, on MAdCAM1

B1: α4/β7 integrin, endogenous on mouse primary T cells (receptor)
chain 1: YNLDPENALLYQGPSGTLFGYSVVLHSHGSKRWLIVGAPTASWLSNASVVNPGAIYRCGIRKNPNQTCEQLQSGSPSGEPCGKTCLEERDNQWLGVTLSRQPGENGSIVTCGHRWKNIFYMKSDNKLPTGICYVMPSDLRTELSKRMAPCYKDYTRKFGENFASCQAGISSFYTQDLIVMGAPGSSYWTGTVFVYNITTNQYKAFVDRQNQVKFGSYLGYSVGAGHFRSPHTTEVVGGAPQHEQIGKAYIFSIDENELNIVYEMKGKKLGSYFGASVCAVDLNADGFSDLLVGAPMQSTIREEGRVFVYINSGMGAVMVEMERVLVGSDKYAARFGESIANLGDIDNDGFEDIAIGAPQEDDLRGAVYIYNGRVDGISSTYSQRIEGQQISKSLRMFGQSISGQIDADNNGYVDVAVGAFQSDSAVLLRTRPVVIVEASLSHPESVNRTKFDCTENGLPSVCMHLTLCFSYKGKEVPGYIVLFYNVSLDVHRKAESPSRFYFFSNGTSDVITGSIRVSSSGEKCRTHQAFMRKDVRDILTPIHVEATYHLGHHVITKRNTEEFPPLQPILQQKKEKDVIRKMINFARFCAYENCSADLQVSAKVGFLKPYENKTYLAVGSMKTIMLNVSLFNAGDDAYETTLNVQLPTGLYFIKILDLEEKQINCEVTESSGIVKLACSLGYIYVDRLSRIDISFLLDVSSLSRAHEDLSISVHASCENEGELDQVRDNRVTLTIPLRYEVMLTVHGLVNPTSFVYGSSEENEPETCMAEKLNLTFHVINTGISMAPNVSVKIMVPNSFLPQDDKLFNVLDVQTTTGQCHFKHYGRECTFAQQKGIAGTLTDIVKFLSKTDKRLLYCMKADQHCLDFLCNFGKMESGKEASVHIQLEGRPSILEMDETSSLKFEIKATAFPEPHPKVIELNKDENVAHVFLEGLHHQRPKRHFTIIIITISLLLGLIVLLLISCVMWKAGFFKRQYKSILQEENRRDSWSYVNSKSNDD
chain 2: ELDTKITSSGEAAEWEDPDLSLQGSCQPVPSCQKCILSHPSCAWCKQLNFTASGEAEARRCARREELLARGCPAQELEEPRGRQEVLQDKPLSQGDRGEGATQLAPQRIRVTLRPGEPQKFRVRFLRAAGYPVDLYYLMDLSYSMKDDLERVRQLGHALLVRLQEVTHSVRIGFGSFVDKTVLPFVSTVPSKLHHPCPSRLERCQPPFSFHHVLSLTGDAQAFEREVGRQNVSGNLDSPEGGFDAILQAALCQEQIGWRNVSRLLVFTSDDTFHTAGDGKLGGIFMPSDGRCHLDSNGVYTNSAEFDYPSVGQVAQALTAANIQPIFAVTGATLPVYQELRQLIPKSAVGELSEDSSNVVQLIMDAYDSLSSTVTLEHSPLPPGVSISFESHCKGPEKTEGEAGDRGQCNDVRVNQTVDFWVTLQATHCLPEAHVLRLWALGFSEELTVELHTVCDCNCGDAQPHAPYCSDGQGDLQCGICSCAPGRLGQLCECSEADLSSPDLESGCRAPNGTGPLCSGKGRCQCGRCSCSGQSSGRLCECDDASCERHEGILCGGFGHCQCGVCHCHANHTGRACECSKSVDSCVSPEGGLCSGHGYCKCNRCQCLDGYYGALCDQCLGCKSPCEQYRDCAECGAFGTGPLAANCSVVCADVNVTLTLAPNLDDGWCKERTIDNQLFFFLVEHAASGIVLRVRPQEKGVDHTRAIILGCTGGIVAVGLGLVLAYRLSVEIYDRREYRRFEKEQQQLNWKQDNNPLYKSAITTTVNPRFQGTNGRSPSLSLTREAD
[1]
  koff: 0.576 s⁻¹
[2]
  koff: 0.61 s⁻¹
